Test results from the RNAGym collection of RNA variant scans (doi:10.1073/pnas.2313332121).

B1: TPR t1 (parent)
chain: GACCAAUCUGCCCUCAGAGCUCGAGAACAUCUUCGGAUGCAGAGGAGGCAGGCUUCGGUGGCGCGAUAGCGCCAACGUCCUCAACCUCCAAUGCAUCCCACCACAUGAUGAUGCCUGAAGAGCCUUGGUUUUUUG

Variants of: B1
Assay: polymerase ribozyme fitness, log enrichment relative to wild type (log ratio); higher = more active; in vitro selection for triplet polymerase activity
Outline: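 In triplicate, a single round of in vitro selection was run on each mutant library, PCR-built and transcribed, covering one subunit of a heterodimeric triplet polymerase ribozyme. Frozen incubation at −7 °C followed annealing with a biotinylated primer, partner subunit and triplets, and extended constructs were then gel-excised, streptavidin-captured and taken through RT-PCR. Fitness is the logarithm of genotype enrichment over wild-type enrichment, from inverse-variance-weighted replicate averages of Illumina-sequenced inputs and outputs. […] only genotypes with ≥10 input reads and ≥1 read per output were kept.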

Going from C53G C94U to C53G G63U, the “polymerase ribozyme fitness (log ratio)” value falls from -0.473 to -2.05.

First: C53A U96A U106A G120A
Second: C53A C88G C104A U129A
The “polymerase ribozyme fitness (log ratio)” value of the first is higher: 0.0353 for the first, -3.51 for the second.

First: C53A U106A G120U C123A
Second: C53G G61C C82U G120A
The “polymerase ribozyme fitness (log ratio)” value of the first is higher: 0.599 for the first, 0.391 for the second.

C53U A121G and C53U A121C are within 0.2 log units of each other in “polymerase ribozyme fitness (log ratio)” value: 1.95 for the first, 2.13 for the second.

Compared with C53A G63C, C53G G120C U125C is higher in “polymerase ribozyme fitness (log ratio)” value: -2.92 for the first, 0.247 for the second.

First: C53G C124A G127A
Second: C53G C70G C115G
The “polymerase ribozyme fitness (log ratio)” value of the first is higher: 0.953 for the first, -3.49 for the second.

Going from C53G C70U C86U A119G to C53G U81G, the “polymerase ribozyme fitness (log ratio)” value falls from -0.0477 to -1.16.

Going from C53G C62A to C53G C62U, the “polymerase ribozyme fitness (log ratio)” value rises from -1.3 to -0.0991.

First: C53U C62U U106C G117U
Second: C53U C62G C64U C115A
The “polymerase ribozyme fitness (log ratio)” value of the first is lower: -4.61 for the first, -2.42 for the second.

Compared with C53U A68G, C53G G60A G61C A91C is lower in “polymerase ribozyme fitness (log ratio)” value: -2.76 for the first, -3.39 for the second.

First: C53A G63A C115U
Second: C53U C72A
The “polymerase ribozyme fitness (log ratio)” value of the first is lower: -3.96 for the first, 0.143 for the second.

Compared with C53G A90C, C53A U130C is higher in “polymerase ribozyme fitness (log ratio)” value: -2.02 for the first, 0.592 for the second.

First: C53A U130G
Second: C53A G71A C115U
The “polymerase ribozyme fitness (log ratio)” value of the first is higher: -0.264 for the first, -3.94 for the second.

Compared with C53A U55G, C53G C101A A121U U126G is lower in “polymerase ribozyme fitness (log ratio)” value: 0.151 for the first, -0.329 for the second.

Going from C53A G77U C102U to C53G C72G C123U, the “polymerase ribozyme fitness (log ratio)” value rises from -2 to 0.978.

Compared with C53G G71C, C53G G71A is lower in “polymerase ribozyme fitness (log ratio)” value: -0.515 for the first, -1.22 for the second.

Compared with C53G C98G, C53G A83C is higher in “polymerase ribozyme fitness (log ratio)” value: -5.63 for the first, -1.33 for the second.

First: C53A U78A
Second: C53A G63U A74U C102G A103C A111G G117C
The “polymerase ribozyme fitness (log ratio)” value of the first is higher: 0.532 for the first, -6.88 for the second.

Going from C53A G60A C85G to C53G G128C, the “polymerase ribozyme fitness (log ratio)” value falls from -1.1 to -2.03.

Compared with C53G G61U C70U, C53A G63A G93A is lower in “polymerase ribozyme fitness (log ratio)” value: -0.621 for the first, -1.34 for the second.

C53G C73A C102A G128C and C53A C72G U92C U126A U132A are within 0.2 log units of each other in “polymerase ribozyme fitness (log ratio)” value: -4.69 for the first, -4.63 for the second.

Compared with C53A C79A G117U, C53G U112C C124U is higher in “polymerase ribozyme fitness (log ratio)” value: -4.98 for the first, 1.27 for the second.

First: C53A C86U G128U
Second: C53A G110A
The “polymerase ribozyme fitness (log ratio)” value of the first is lower: -1.61 for the first, -0.6 for the second.

First: C53G C72G
Second: C53A C70A A75U C79A C82G U112C
The “polymerase ribozyme fitness (log ratio)” value of the first is higher: 0.577 for the first, -3.2 for the second.

First: C53A G69U
Second: C53G A90C G117U
The “polymerase ribozyme fitness (log ratio)” value of the first is higher: 1.4 for the first, -3.56 for the second.

First: C53G U125C
Second: C53G U131G
The “polymerase ribozyme fitness (log ratio)” value of the first is lower: -2.29 for the first, -1.07 for the second.

Going from C53A G71C C86U to C53A C72U U87A G107U, the “polymerase ribozyme fitness (log ratio)” value falls from -3.57 to -4.92.

Going from C53G G117A to C53U A95C C115A, the “polymerase ribozyme fitness (log ratio)” value rises from -1.45 to 0.802.

First: C53G A119G G128U
Second: C53G A105C
The “polymerase ribozyme fitness (log ratio)” value of the first is higher: 0.277 for the first, -2.81 for the second.

Going from C53G G110A to C53A U59C, the “polymerase ribozyme fitness (log ratio)” value rises from -1.16 to 0.311.

Compared with C53G C115A, C53A G69U C88G U112A G122A U133C is higher in “polymerase ribozyme fitness (log ratio)” value: -0.163 for the first, 1.96 for the second.

Going from C53G C114U G122A to C53U C56G U116A G120C U133G, the “polymerase ribozyme fitness (log ratio)” value rises from -2.38 to -1.3.

Going from C53G C97A to C53U A108U, the “polymerase ribozyme fitness (log ratio)” value falls from -5.66 to -6.86.

First: C53G C102U U112A G120U
Second: C53G C64U G110U G128A U133A
The “polymerase ribozyme fitness (log ratio)” value of the first is higher: -4.93 for the first, -5.27 for the second.

Going from C53A C89U U126C to C53A C89U U131G, the “polymerase ribozyme fitness (log ratio)” value rises from -1.37 to 0.265.

Compared with C53G C56A C86U U96G G117U, C53G U92C is higher in “polymerase ribozyme fitness (log ratio)” value: -3.87 for the first, -1.3 for the second.

Compared with C53U A84U U126C, C53G U78C C114U U132A is lower in “polymerase ribozyme fitness (log ratio)” value: -1.72 for the first, -2.19 for the second.

Compared with C53U C64U A83G, C53A G63U C82A A83C U96C is lower in “polymerase ribozyme fitness (log ratio)” value: -0.811 for the first, -3.55 for the second.

First: C53G C124A
Second: C53U C56G C76G U125A
The “polymerase ribozyme fitness (log ratio)” value of the first is higher: 0.714 for the first, -0.978 for the second.

C53G G63A C115G U116A U131G and C53A G60A C72A A91U U92G C97A C124A are within 0.2 log units of each other in “polymerase ribozyme fitness (log ratio)” value: -7.22 for the first, -7.15 for the second.

Going from C53A G71U C85A to C53G U96C U106A A119G U133A, the “polymerase ribozyme fitness (log ratio)” value rises from -0.672 to 1.61.

Going from C53G A75U C88A to C53A C89U U106C, the “polymerase ribozyme fitness (log ratio)” value rises from -0.918 to -0.0062.
